Data: publication doi:10.1101/2024.09.18.613619 (bioRxiv, 2024)

Target: T1, Rpn8 (Saccharomyces cerevisiae proteasome lid subunit) (S. cerevisiae, UniProt Q08723 1-338)
T1 sequence (looked up): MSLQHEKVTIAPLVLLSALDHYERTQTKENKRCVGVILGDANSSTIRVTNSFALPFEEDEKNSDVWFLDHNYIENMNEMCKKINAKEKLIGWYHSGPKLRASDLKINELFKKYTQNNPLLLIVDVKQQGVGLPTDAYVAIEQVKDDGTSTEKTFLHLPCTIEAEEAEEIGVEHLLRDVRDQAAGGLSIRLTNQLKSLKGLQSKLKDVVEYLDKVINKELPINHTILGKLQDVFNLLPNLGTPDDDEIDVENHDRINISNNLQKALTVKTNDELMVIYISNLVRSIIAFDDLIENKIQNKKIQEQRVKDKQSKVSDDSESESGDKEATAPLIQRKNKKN
Experiment: two-hybrid

β-galactosidase activity relative to the GlRpn8-GlRpn11 pair: ~2 fold
B1: Rpn11 (Saccharomyces cerevisiae proteasome lid subunit) (natural protein, S. cerevisiae, UniProt P43588 1-306, looked up)
chain: MERLQRLMMNSKVGSADTGRDDTKETVYISSIALLKMLKHGRAGVPMEVMGLMLGEFVDDYTVNVVDVFAMPQSGTGVSVEAVDDVFQAKMMDMLKQTGRDQMVVGWYHSHPGFGCWLSSVDVNTQKSFEQLNSRAVAVVVDPIQSVKGKVVIDAFRLIDTGALINNLEPRQTTSNTGLLNKANIQALIHGLNRHYYSLNIDYHKTAKETKMLMNLHKEQWQSGLKMYDYEEKEESNLAATKSMVKIAEQYSKRIEEEKELTEEELKTRYVGRQDPKKHLSETADETLENNIVSVLTAGVNSVAIK
